From patent publication US5521072

These substances were tested against recombinant Actinobacillus pleuropneumoniae serotype 7 60 kDa transferrin binding protein (Actinobacillus pleuropneumoniae serotype 7 strain AP205) (assay: competitive ELISA, 50% inhibition value, solid phase porcine transferrin).

“bovine apotransferrin (from UniProt Q29443) (ligand)” and “bovine transferrin, iron replete (from UniProt Q29443) (ligand)” cannot be ordered by IC50: > 1000 µg/mL for the first, > 1000 µg/mL for the second.

“human apotransferrin (from UniProt P02787) (ligand)” and “human transferrin, iron replete (from UniProt P02787) (ligand)” cannot be ordered by IC50: > 1000 µg/mL for the first, > 1000 µg/mL for the second.

Compared with “porcine TF, NH2-terminus (from UniProt P09571) (ligand)”, “porcine apotransferrin (from UniProt P09571) (ligand)” is 7.5-fold higher in IC50: 20 µg/mL for the first, 150 µg/mL for the second.

What follows are substances tested against recombinant Actinobacillus pleuropneumoniae serotype 7 60 kDa transferrin binding protein (Actinobacillus pleuropneumoniae serotype 7 strain AP205) (assay: competitive ELISA, 50% inhibition value; competitor preincubated with the recombinant 60 kDa protein, solid phase porcine transferrin).

Work on “porcine transferrin (TF), iron replete (from UniProt P09571) (ligand)” yielded an IC50 of 25 µg/mL.
